Here are results for one molecule from article PMC8318917 (The Journal of Biological Chemistry, 2021).

The experiment has as its target T1, human TRADD death domain (199–312) (human, UniProt Q15628 199-312).
T1 sequence: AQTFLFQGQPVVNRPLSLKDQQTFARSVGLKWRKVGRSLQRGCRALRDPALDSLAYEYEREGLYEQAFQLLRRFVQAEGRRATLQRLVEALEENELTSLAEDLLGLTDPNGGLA
Put plainly: NMR solution structure.

B1: human p75 neurotrophin receptor death domain (330–427) (domain or fragment)
chain: KGDGGLYSSLPPAKREEVEKLLNGSAGDTWRHLAGELGYQPEHIDSFTHEACPVRALLASWATQDSATLDALLAALRRIQRADLVESLCSESTATSPV
Take B1: the binding result is listed as “binds”.
